# Measurements: US20250355001A1 (GTINVENT, published 2025)
# Residue numbers refer to the chain shown, from its start. Read-outs that look alike come from different tables or passages of the source.
# T1: tau peptide 145-157 (human)
# T1 peptide: ADGKTKIATPRGA
# T2: tau fragment 369-390 (human)
# T2 peptide: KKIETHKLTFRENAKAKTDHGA
# T3: tau fragment 369-391 (human)
# T3 peptide: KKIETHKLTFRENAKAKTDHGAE
# B1: 3aD6 scAb (scFv, not shown: small tags and cut ends)
# scFv: QVQLQESGPSLVKPSQTLSLTCTVSGFSLTSNAVIWVRQAPGKAPEWVALIDVDGDAAYDPALKSRLSITRDTSKSQVSLSLRSVTTEDTAVYYCARDYGSWGYVSDIDYWGPGLLVTVSSEGKSSGASGESKVDDQAVLTQPSSVSGSLGQRVSITCSGSDIGGADVGWFQQVPGSGLRTLIYDNDNRPSGVPDRFSGSKSGNTATLTISSLQPEDEADYFCGTYSGANYGIFGSGTRLTVLG
# notes: scAb
# B2: S1D12 mAb (antibody, mouse IgG2a, V domains shown)
# VH: QVQLQESGPSLVKPSQTLSLTCTVSGFSLNNNAVGWVRQAPGKVPESLVGCSSDGTCYYNSALKSRLDITRDTSKNQISLSLSSVTTDDAAVYYCTRGHYSIYGYDYLGTIDYWGPGLLVTVSS
# VL: QAVLTQPSSVSGSLGQRVSITCSGSSSNVGGGNSVGWYQHLPGSGLKTIIYDTNSRPSGVPDRFSGSRSGNTATLTINSLQAEDEGDYYCVTGDSTTHDDLVGSGTRLTVLG
# notes: sheep-mouse IgG2a chimeric mAb; also called S1D12 antibody; SD12
# B3: S2C6 scAb (scFv, not shown: small tags and cut ends)
# scFv: QVQLQESGPSLVKPSQTLSLTCTVSGFSLISNSVGWVRQAPGKAPEWVAGIDTDGEEGYNPALKSQYAASDPDTSKSQVSLSLSSVTSEDTAVYYCGRTYRTDGFAYGYVQAIDYWGPGLLLTISSEGKSSGASGESKVDDQAVLTQPSSVSGSLGQRVSITCSGSFIGISSVGWFQQLPGSGLRTIIVASDGRPSGVPDRFSMSKSGNTATLTISSLQAEDEADYFCGSSDRTQYTGVFGSGTRLTVLG
# notes: scAb
# B4: 3aA6 scAb (scFv, not shown: small tags and cut ends)
# scFv: QVRLQESGSSLVKPSQTLSLVCTVSGFPLTSNAVGWVRQAPGKAPEWLGLIDIDGDTAYNPALESRLSITRDTSKSQVSLSLSSVAIEDTAVYYCARHYDKWGYADSIDYWGPGLLVTVSSEGKSSGASGESKVDDQALLTQPSSVFGSLGQRVSITCSGSSSNVGYGDYVGWYQQVPGSAPKLLIYDATTRASGVPDRFSGSRSGNTATLTISSLQAEDEADYYCASYQNERSGVFGSGTRLTVLG
# notes: scAb
# B5: E2E8 mAb (antibody, mouse IgG2a, V domains shown)
# VH: QVQLQESGPSLVKPSQTLSLTCTVSGFSLTDRGVAWVRQAPGKALEWVGTMRSGGTIDYNPALKSRLSITRDTSKSQVFLSLSSVTTEDMAMYYCARGYLSGDRYAWGRGLLVTVSS
# VL: QAVLTQPSSVSKSLGQSVSIACSGSRSDIGYGNYVSWFQQIPGSAPKLLIYDTNTRASGVPDRFSGARSGNTATLTINSLQAEDEADYYCANIDSSRSHLFGSGTRLTVLG
# notes: sheep-mouse IgG2a chimeric mAb
# B6: S1G10 scAb (scFv, not shown: small tags and cut ends)
# scFv: QVQLQESGPSLVKPSQTLSLTCTVSGFSLTSNSVGWVRQAPGKAPEWVAGIDTDGEEGYNPALNSRLSITRDTSKSQVSLSLSSVTSEDTAVYYCGRSYRADGLAYGYVQAIDYWGPGLLVTVSSEGKSSGASGESKVDDQAVLTQPSSMSGSLGQRVSITCSGSFIGISSVGWFQQLPGSGLRTIIVASDGRPSGVPDRFSMSKSGNTATLTISSLQAEDEADYFCGSSDRTQYTGVFGSGTRLTVLG
# notes: scAb
# B7: S1B1 scAb (scFv, not shown: small tags and cut ends)
# scFv: B6 scFv with T30S, G96V, A101T, M150V, I186V, M203N
# notes: scAb
# B8: CA4 mAb (antibody, mouse IgG2a, V domains shown)
# VH: QVQLQESGPSLVKPSQTLSLTCTVSGFSLTSYSVYWVRQAPGQALEWISIMYASGRVDYNPALKSRLSITRDTSKSQFSLSLSSVTTEDTAVYYCTRGIENWGPGLLVTVSS
# VL: DIQVTQSPSSLSASLTERVSITCRTSQSVNNYLSWYQQKPGQAPKLLIYYATRLYTDVPSRFSGSGSGTDYTLTITSLEADDTATYYCLQYDSTPLAFGGGTNVEIKG
# notes: sheep-mouse IgG2a chimeric mAb; also called CA4 antibody
# B9: CC7 mAb (antibody, mouse IgG2a, V domains shown)
# VH: QVQLQESGPSLVKPSQTLSLTCTVSGFSLTSNAVIWVRQAPGKAPEWVALIDVDGDAAYDPALKSRLSITRDTSKSQVSLSLRSVTTEDTAVYYCARDYGSWGYVSDIDYWGPGLLVTVSS
# VL: RVVRTQPSSVSGSLGQRVSITCSGSYITGSSVGWFQQVPGSGLKTVIYDNNDRPSGVPDRFSGSKSGDTATLTISSLQAEDEADYYCASYDTSNIGLFGSGTRLTVLG
# notes: sheep-mouse IgG2a chimeric mAb; also called CC7 antibody
# B10: S1D9 scAb (scFv, not shown: small tags and cut ends)
# scFv: QVQLQESGPSLVKPSQTLSLTCTVSGFSLTSNSVGWVRQAPGKAPEWVAGIDSDGEEGYNPALNSRLSITRDTSKNQVSLSLSRVTSEDTAVYYCGRTYRTDGYAYGYVQAIDYWGPGLLVTVSSEGKSSGASGESKVDDRVMLTQPPSVSGSPGQTVSITCSGSFIGISSVGWFQQLPGSGLRTVIFASDGRPSGVPDRFSNSKSGNTATLTISSLQAEDEADYFCGSSDRTQYTGVFGSGTRLTVLS
# notes: scAb
# Assays:
# tau peptide 145-157 = target: T1, tau peptide 145-157; assay: ELISA
# Experimental: (§1) A series of binding ELISA was performed using various truncated versions of the tau protein and 13mer peptide libraries spanning the entire hT40 molecule for mapping the epitopes of anti-tau scAbs (Full list of protein antigens used is given in Table 14). In general, ELISA plates were coated with 1 μg/ml hT40 or dGA or dGAE or other truncated versions of the protein and in the case of biotinylated peptides, plates were coated with 5 μg/ml Streptavidin followed by 1 μg/ml biotinylated peptide. The plates were blocked with 2% MPBS and scAb samples added at desired starting concentrations and double diluted across the plate. Binding was detected using anti-Human C Kappa HRP conjugated secondary antibody and the resulting immunoreaction was developed and absorbance values measured as described above.
# aggregated dGAE [1] = target: T4, aggregated dGAE (human, UniProt P10636 614-708, limits assumed); assay: capture ELISA, mAb coated at 1 µg/ml, aggregates titrated, S1G2 scAb detection
# T4 construct: dGAE aggregated in vitro with DTT, 700 rpm, 37 C, 24 h; also called dGAE aggregates; dGAE agg
# [2] = target: T5, human tau (hT40) with P301S and G335D of Line 66 mice (human, UniProt P10636 1-758); assay: Western blot
# T5 construct: transgene product in brain homogenate or plasma; also called L66 human tau
# T5 sequence (P10636 other isoform, or with tags, fused parts or gaps P301S G335D P301S G335D limits assumed): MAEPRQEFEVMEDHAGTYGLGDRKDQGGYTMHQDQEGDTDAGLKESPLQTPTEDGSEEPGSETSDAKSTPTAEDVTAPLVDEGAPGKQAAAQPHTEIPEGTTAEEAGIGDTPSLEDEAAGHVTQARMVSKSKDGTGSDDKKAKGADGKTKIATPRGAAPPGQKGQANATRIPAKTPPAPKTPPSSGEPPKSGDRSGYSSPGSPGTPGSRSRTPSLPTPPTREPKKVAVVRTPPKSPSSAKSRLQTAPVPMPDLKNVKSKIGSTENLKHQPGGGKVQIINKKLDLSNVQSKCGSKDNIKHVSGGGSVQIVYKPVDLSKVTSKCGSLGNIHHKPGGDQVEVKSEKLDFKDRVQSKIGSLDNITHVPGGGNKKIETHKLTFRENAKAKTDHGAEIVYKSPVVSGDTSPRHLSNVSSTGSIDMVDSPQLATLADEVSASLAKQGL
# [3] = target: T6, full length human tau protein 2N4R (hT40) (human, UniProt P10636 1-758); assay: SPR, hT40 immobilised, mAb analyte
# T6 construct: recombinant; also called T441
# T6 sequence (P10636 other isoform, or with tags, fused parts or gaps limits assumed): as the sequence (P10636 other isoform, or with tags, fused parts or gaps P301S G335D P301S G335D limits assumed) above, with S301P, D335G counted along it
# Experimental: For anti-tau mAb SPR measurements, htau40 was conjugated to the surface of a CM5 sensor chip using amine coupling as explained previously. Briefly, 2 μg/mL htau40 in 10 mM Sodium acetate buffer (pH 4.0) was passed over the activated chip surface (EDC/NHS) in flow cell 2 for a period for 45 s followed by blocking with 1 M ethanolamine-HCl PH 8.5. Flow cell 1 was set up as reference control and blocked simultaneously. Final immobilisation level of htau40 (Rmax) was approximately 250 RU. […] The mAb was added for a 120 s association period and 600 s dissociation period followed by a regeneration cycle of 30 s injection of glycine buffer pH 1.5 in between each cycle. Binding responses were analysed in Biacore X100 evaluation software and data fitted to a 1:1 binding model to obtain kinetic and affinity characterisation.
# dGAE (tau 297-391) [4] = target: T7, dGAE (tau 297-391) (human, UniProt P10636 614-708); assay: direct ELISA
# T7 construct: monomer; also called dGAE95
# tau fragment 369-390 [5] = target: T2, tau fragment 369-390; assay: direct ELISA
# [6] = target: T6, full length human tau protein 2N4R …; assay: SPR, scAb captured, tau analyte
# Experimental: (§2) The capture antibody was diluted 1/100 in 10 mM Sodium acetate buffer pH 5.0 and passed over the activated chip surface for a period of at least 420 s. Final ligand immobilisation levels over 12,000 RU were deemed to be satisfactory.
# (§3) The scAb to be tested was added only to flow cell 2 so that flow cell 1 could act as a control to subtract any interaction with the analyte and the chip surface. […] The multi-cycle protocol was as follows-Three start-up cycles composed of an initial capture, to the desired level, of the scAb to be tested was performed followed by a 30 s injection of glycine buffer pH 2.0 after each cycle to regenerate the chip surface. […] The target was added for a 120 s association period and 420 s dissociation period followed by another regeneration, 30 s injection of glycine buffer pH 2.0 in between each cycle.
# (§4) The single cycle kinetics protocol was similar and utilised the same level of scAb capture. […] In single cycle kinetics the regeneration step was performed only after the final analyte concentration was added. Binding responses were analysed in Biacore X100 evaluation software and data fitted to a 1:1 binding model to obtain kinetic and affinity characterisation.
# dGAE (tau 297-391) [7] = target: T7, dGAE (tau 297-391); assay: direct ELISA; remark: listed apart in the source
# [8] = target: T6, full length human tau protein 2N4R …; assay: Biacore
# Experimental: as §2, §3, §4
# [9] = target: T6, full length human tau protein 2N4R …; assay: sandwich ELISA, S1D12 mAb capture, scAb detection
# Experimental: Full length tau (hT40), at 1 μg/ml starting concentration was added to designated wells and double diluted across rest of the plates and left to incubate at R/T for 1 h. A series of detection scAbs with varying epitope recognition properties were added at 10 μg/ml to designated wells (FIG. 22). For colourimetric detection HRP conjugated anti-HuCk secondary antibody was used and the resulting immunoreaction was developed and absorbance at 450 nm measured as described previously. Cut-off point for a positive binding event was an absorbance value of 0.3 following background subtraction. In order to enhance the assay sensitivity, a chemiluminescent detection method was adopted where 50 μL SuperSignal ELISA Femto Substrate (Thermo Scientific) was added to each well following incubation with anti-HuCK HRP antibody and subsequent washing. The luminescence was read using Clariostar Plus microplate reader. A further modification to this protocol was done where various detection scAbs were directly conjugated with HRP and detected using chemiluminescent protocol as before.
# tau fragment 369-391 = target: T3, tau fragment 369-391; assay: ELISA
# Experimental: as §1
# tau fragment 369-390 [10] = target: T2, tau fragment 369-390; assay: direct ELISA
# [11] = target: T6, full length human tau protein 2N4R …; assay: hT40 ELISA
# dGA (tau 297-390) = dGA (tau 297-390) (human, UniProt P10636 614-707); assay: ELISA
# Experimental: as §1
# aggregated dGAE [12] = target: T4, aggregated dGAE; assay: capture ELISA, mAb coated at 1 µg/ml, S1G2 scAb detection
# mouse tau = target: T8, mouse tau (mouse, UniProt P10637 2-733); assay: Western blot of brain homogenates
# T8 construct: endogenous protein of mouse brain or plasma; also called endogenous mouse tau
# T8 sequence (P10637 other isoform, or with tags, fused parts or gaps limits assumed): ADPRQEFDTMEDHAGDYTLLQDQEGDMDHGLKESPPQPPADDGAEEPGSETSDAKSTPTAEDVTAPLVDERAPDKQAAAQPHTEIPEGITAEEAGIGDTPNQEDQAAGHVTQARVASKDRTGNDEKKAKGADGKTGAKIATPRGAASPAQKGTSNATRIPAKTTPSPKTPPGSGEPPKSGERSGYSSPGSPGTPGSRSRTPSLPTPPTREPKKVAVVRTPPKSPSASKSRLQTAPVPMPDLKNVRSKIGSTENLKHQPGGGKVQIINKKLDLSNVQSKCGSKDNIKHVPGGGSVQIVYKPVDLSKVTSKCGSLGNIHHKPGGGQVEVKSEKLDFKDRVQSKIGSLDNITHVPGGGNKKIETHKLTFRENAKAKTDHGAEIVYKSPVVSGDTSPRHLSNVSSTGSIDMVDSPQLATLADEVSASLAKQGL
# [13] = target: T9, human tau fragment 296-390 of Line 1 mice (human, UniProt P10636 613-707); assay: Western blot of brain homogenates
# T9 construct: also called L1 fragment; 10-kDa tau fragment
binder,measurement,setting,value
B1,binding result,tau peptide 145-157,binds
B2,EC50 (read off the curve),aggregated dGAE [1],~30 nM
same,binding result,[2],binds
same,Kd,[3],0.101 nM
same,koff,[3],4.09e-05 s⁻¹
same,kon,[3],406000 M⁻¹ s⁻¹
B3,EC50 (read off the curve),dGAE (tau 297-391) [4],~0.8 µg/mL
same,EC50 (read off the curve),tau fragment 369-390 [5],~2 µg/mL
B4,Kd,[6],989 nM
same,koff,[6],0.0188 s⁻¹
same,kon,[6],19000 M⁻¹ s⁻¹
same,binding result,tau peptide 145-157,binds
B5,EC50 (read off the curve),aggregated dGAE [1],~80 nM
B6,EC50 (read off the curve),dGAE (tau 297-391) [7],~0.9 µg/mL
same,Kd,[8],0.4 nM
same,LoD chemiluminescence detection,[9],0.12 ng/mL
same,LoD colourimetric detection,[9],2 ng/mL
same,binding result,tau fragment 369-391,binds
same,binding result,tau fragment 369-390 [10],binds
B7,binding result,dGAE (tau 297-391) [7],binds
same,binding result,[11],binds
same,binding result,dGA (tau 297-390),binds
B8,binding result,aggregated dGAE [12],no binding (tested: 800 nM)
same,Kd,[3],1.3 nM
same,koff,[3],0.00128 s⁻¹
same,kon,[3],1.02e+06 M⁻¹ s⁻¹
B9,binding result,[2],binds
same,Kd,[3],6.9 nM
same,koff,[3],0.0316 s⁻¹
same,kon,[3],4.58e+06 M⁻¹ s⁻¹
same,binding result,mouse tau,no binding
same,binding result,[13],no binding
B10,EC50 (read off the curve),[11],~1 µg/mL
